The labels stand for the following.
T1: activin B (UniProt P09529 293-407)
T1 sequence (looked up): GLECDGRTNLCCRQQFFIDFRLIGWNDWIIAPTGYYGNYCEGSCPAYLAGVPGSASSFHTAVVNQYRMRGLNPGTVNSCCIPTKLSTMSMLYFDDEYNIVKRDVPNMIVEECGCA

T2: BMP6 (UniProt P22004 382-513, limits assumed)
T2 sequence (looked up): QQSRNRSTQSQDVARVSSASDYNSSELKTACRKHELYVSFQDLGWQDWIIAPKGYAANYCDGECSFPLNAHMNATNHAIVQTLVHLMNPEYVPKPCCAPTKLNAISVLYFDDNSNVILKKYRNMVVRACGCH

T3: activin A (UniProt P08476 311-426)
T3 sequence (looked up): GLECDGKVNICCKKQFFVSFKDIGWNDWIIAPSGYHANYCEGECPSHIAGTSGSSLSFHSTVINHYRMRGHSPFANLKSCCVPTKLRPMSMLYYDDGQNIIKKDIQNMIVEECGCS

B1: GDF11 (ligand, UniProt O95390 299-407, looked up)
chain: NLGLDCDEHSSESRCCRYPLTVDFEAFGWDWIIAPKRYKANYCSGQCEYMFMQKYPHTHLVQQANPRGSAGPCCTPTKMSPINMLYFNDKQQIIYGKIPGMVVDRCGCS
notes: also called BMP11
B2: BMP10 (ligand, UniProt O95393 317-424, looked up)
chain: NAKGNYCKRTPLYIDFKEIGWDSWIIAPPGYEAYECRGVCNYPLAEHLTPTKHAIIQALVHLKNSQKASKACCVPTKLEPISILYLDKGVVTYKFKYEGMAVSECGCR
B3: ActRIIB homodimer Fc fusion (Fc fusion, UniProt Q13705 20-134, looked up)
chain: GRGEAETRECIYYNANWELERTNQSGLERCEGEQDKRLHCYASWRNSSGTIELVKKGCWLDDFNCYDRQECVATEENPQVYFCCCEGNFCNERFTHLPEAGGPEVTYEPPPTAPT
notes: Comparator; also called homodimeric ActRIIB Fc fusion; homomeric ActRIIB-Fc; not shown: linker and Fc domain of the homodimer are not described
B4: GDF3 (ligand, UniProt Q9NR23 251-364, looked up)
chain: AAIPVPKLSCKNLCHRHQLFINFRDLGWHKWIIAPKGFMANYCHGECPFSLTISLNSSNYAFMQALMHAVDPEIPQAVCIPTKLSPISMLYQDNNDNVILRHYEDMVVDECGCG
notes: also called VGR2
B5: BMP9 (ligand, UniProt Q9UK05 320-429, looked up)
chain: SAGAGSHCQKTSLRVNFEDIGWDSWIIAPKEYEAYECKGGCFFPLADDVTPTKHAIVQTLVHLKFPTKVGKACCVPTKLSPISVLYKDDMGVPTLKYHYEGMSVAECGCR
notes: also called GDF2

Holding throughout (test): SPR (Biacore); Fc fusion captured by anti-Fc antibody, ligand injected
Assay [1] deals with T4, ActRIIA homodimer Fc fusion (UniProt P27037 21-135).
T4 construct: Comparator; also called homodimeric ActRIIA Fc fusion; not shown: linker and Fc domain of the homodimer are not described
As for the experimental part: A Biacore™-based binding assay was used to compare ligand binding selectivity of the single-arm ActRIIA heterodimer Fc fusions described above with that of an ActRIIA homodimer Fc fusion. The single-arm ActRIIA heterodimer Fc fusions and ActRIIA homodimer Fc fusions were independently captured onto the system using an anti-Fc antibody. Ligands were injected and allowed to flow over the captured receptor protein.

For assay [2], the target named is B3. As for the experimental part:
(§1) A Biacore™-based binding assay was used to compare ligand binding selectivity of the single-arm ActRIIB heterodimer Fc fusion described above with that of ActRIIB homodimer Fc fusion. Single-arm ActRIIB […] Fc fusion and ActRIIB homodimer Fc fusion were independently captured onto the system using an anti-Fc antibody. Ligands were injected and allowed to flow over the captured receptor protein.

The target of a further assay is T1, activin B. As for the experimental part: as §1
Another assay concerns the target T2, BMP6. The protocol: as §1
Another assay addresses T3, activin A. The protocol:
as §1

T4 sequence (P27037 21-135): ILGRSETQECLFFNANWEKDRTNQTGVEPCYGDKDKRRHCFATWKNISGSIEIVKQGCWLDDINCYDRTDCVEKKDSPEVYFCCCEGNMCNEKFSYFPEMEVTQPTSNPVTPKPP

In assay [1], B1 came in with an equilibrium dissociation constant (Kd) of 28 pM, a koff of 0.00072 s⁻¹ and a kon of 2.6e+07 M⁻¹ s⁻¹. Further, in assay [2], binding was put at a Kd of 2 pM, the koff was found to be 0.00011 s⁻¹ and the kon is 5e+07 M⁻¹ s⁻¹.

In assay [1], B2 showed a dissociation constant Kd of 86 pM and an on-rate (kon) of 2.9e+07 M⁻¹ s⁻¹. In assay [2], this molecule showed a Kd of 11 pM, a koff of 0.00026 s⁻¹ and an on-rate (kon) of 2.3e+07 M⁻¹ s⁻¹.

In the case of B3, in the assay with activin B, the dissociation constant (Kd) was 20 pM, the koff amounted to 0.0001 s⁻¹ and the kon worked out at 5.1e+06 M⁻¹ s⁻¹. In the assay with BMP6, this molecule had a Kd of 210 pM, a koff of 0.0068 s⁻¹ and a kon of 3.2e+07 M⁻¹ s⁻¹. Moreover, in the assay with activin A, the Kd came out at 19 pM, the koff was determined as 0.00023 s⁻¹ and the kon was 1.2e+07 M⁻¹ s⁻¹.

With B4, in assay [2], the dissociation constant (Kd) stood at 1500 pM, the dissociation rate constant (koff) was determined as 0.0022 s⁻¹ and the kon amounted to 1.4e+06 M⁻¹ s⁻¹.

On to B5, for which, in assay [2], binding was characterised by a dissociation constant (Kd) of 78 pM, the off-rate (koff) was 0.0011 s⁻¹ and the kon was 1.4e+07 M⁻¹ s⁻¹.

These data come from patent US20230190875A1 (ACCELERON PHARMA, published 2023).
